Measured values as given in the nanobody polyreactivity screen of Harvey et al. (2022).

assay: yeast display, Sf9 membrane polyspecificity reagent, FACS + sequencing; frameworks hold sequencing errors
Outline: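 Using colony PCR, genes from sorted yeast display clones were amplified, then sequenced on MiSeq at 2 × 250 and filtered by CDR length. The clones had been stained with 10% biotinylated, detergent-solubilized Sf9 membrane reagent for 1 hour at 4 °C and sorted by FACS into low and high (top ~1%) gates on anti-HA and streptavidin fluorescence. Polyreactivity labels come from the gate of origin.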

Sequence | polyreactivity (PSR sort gate)
QVQLVESGGGLVQAGGSLRLSCAASGRIFLRNAMGWYRQAPGKERELVAAISRRGATTYYADSVKGRFTISRDNAKNTVYLQMNSLKPEDTAVYYCAKRVWETDYDYWGQGTQVTVSS | high polyreactivity
QVQLVESGGGLVQAGGSLRLSCAASGLIFFHNGMGWYRQAPGKEREFVAVISSSGGSTYYADSVKGRFTISRDNAKNTVYLQMNSLKPEDTAVYYCAARDYSRRYGYWGQGTQVTVSS | high polyreactivity
QVQLVESGVGLVQAGGSLRLSCAASGLIFGYYAMGRNRQAPGKERELVAAITRGGGRTYYADSVKGRFTISRDNAKNTVYLQMNSLKPEDTAVYYCNAVRRVSSAGEFDYWGQGTQVTVSS | high polyreactivity
QVQLVESGGGLVKAGGSLRISCAASGSIFTPYTMGWYRQAPGKERELVAAISSGDSTYYADSVKGRFTISRDNAKKTVYLQMNSLKPEDTAVYYCAADYRYDYDYWGQGTQVTVSS | low polyreactivity
QVQLVESGGGLVQAGGSLRLSCAASGSIFPPNAMGWYRQAPGKEREFVATITGRGGRTYYADSVKGRFTISRDNAKNTVYLQMNSLKPEDTAVYYCAARYTTSSRAKIEYDYWGQGTQVTVSS | high polyreactivity
QDQLVESGGGLVQAGGSLRLICAASGSIFTSNAMGWYRQAAGKERELVAAITSSGGSTYYADSVKGRFTISRDNAKNTVYLHMNSLKPEYTAVYYCAAAKFDLSFWLYYWGQGTQVTVSS | low polyreactivity
QVQLVESGGGLVQAGGSLRLSCAAYGLTFPYYVMGWYRPAPGKERELVAAISSSGGSTYYADSVKGRFTISRDNAKNTVYLQMNSLKPEDTAVYYCAAVEIYLAYDLPYWSEMDYWGQGTQVTVSS | low polyreactivity
QVQLVESGGGLVQAGGSLRLSCAASGRTFGWYAMGWYRQAPGKERELVASITQRGGRTYYADSVKGRFTISRDNAKNTVYLQMNSLKPEDTAVYYCAAKTSPGMYYWGQGTQVTVSS | high polyreactivity
QVQHVESGGGLVHAGGSLRLSCAASGLIFRNNAMVLYRQAPGTERELDASITSDGSTNYADSVKGRFRISRDNAKNSFYLQMNSLKPEDTAVYYCAADGYTYWYYQLIPDYDYWGQGTQVTVSS | low polyreactivity
QVQLVESGGGLVQAGGSLRLSCAASGRIFRYYAMGWYRPATGKERELVAGITRGGTTNYSDSVKGRFTISRDNAKNTVYLQMNSLKPEDTAVYYCAADTRRGIIGYDYWGQGTQVTVSS | high polyreactivity
QVQLVESGGGLVQAGGSLRLSCAASGFIFEWNGMGWYRQAPGKERELVAAITWSGGSTYYADSVKGRFTISRDNAKNTVYLQMISLKPEDTAVYYCAADFPEYYLPYDNWGQGTQVTVSS | low polyreactivity
QVQLVESGGGLVQAGGSLRLSCAASGRIFYFNAMGWYRQAPGKERELVAAISGSGGDTYYADSVKGRFTISRDNAKNTVYLQMNSLKPEDTAVYYCAAEVYTWGQGTQVTVSS | low polyreactivity
QDQLVESGGGLVQAGGSLRLSCAASGLIFKYNAMGWSRQAPGKERELVADINRSGGSTYYADSVKGRFTISRDNSKNTVSLQMNSLKPEDSAVYDCAAERVSLYWVIFGYWGQGTQVTVSS | low polyreactivity
QVQLVESGGGLVQAGGSLRLSCAASGLTFSYNAMGWYIQAPGTERELVAAINWSGGSTYYADSVKGRFTISRDNAKNTVYLPMNSLKPEDTAVYYCAADIYSKGGRGLYYWGQGTQLTVSS | high polyreactivity
QVQLVESGGGFVQAGGSLRLSCAASGSTFRFYAMGWYRQAPGKERELVAAINGSGGSTYYADSVKGRFTISRDNAKNTVYLQMNSLKPEDTAVYYCAAESNTGPGEDYWGQGTQVTVSS | low polyreactivity
HVQLVESGGGLVQAGGSLRLSCAASGITFASYGMGWYRPAPGKDRELVAAISQRGGRTYYADSVKGRFTISRDNAKNTVYLQMNSLKPEDTAVYYCARTVGYRTLLESDSWGQGTQVTVAS | high polyreactivity
QVQLVESAGGLVQAGGSLRLSCAASGSTFGANAMGWYRQAPGKEREYVAAISRSGVRTYYADSVKGRFTISRDNAKNTVYLQMNSLKPEDTAVYYCAADGYWWTYTRYDYWGQGTQVTVSS | low polyreactivity
QVQLEESGGGLVQAGGSLRLSCAASGSTLGYNVMGWYRQAPGKERELVAAISGDGSTNYADSVKGRFTISRDNAKNTVYLQMNSLKPEDTAVYYCAADTYGGSRDYWGQGTQVTVSS | low polyreactivity
QVQLVESGGGLVQAGGSLRLSCAASGSTFRRNAMGWYRQAPGKERELVAAITWRGGSTSYADSVKGRFTISRDNAKNTVYLQMNSLKPEDTGVYYCAAVKGHSQVLSYGYWGQGTQVTVSS | low polyreactivity
QVQLVESGGGLVQAGGSLRLSCAASGSIFDYYAMGWYRQAPGKERELVAAISTSTSSTYYADSVKGRFTISRDNAKNTVYLQMNSLKPEDTAVYYCAAEGESQPESPGYDYWGQGTQVTVSS | low polyreactivity
QDQLVESGGGLVQAGGSLRLSCAASGRTFVSNGMGWYRQAPGKERELLADINDGDDTYYADSVKGRFTISRDNAKNTVYLQMNSLKPEDTAVYYCAADPYWFFPHYDSWGQGTQVTVSS | low polyreactivity
QVQLVESGGGLVQAGGSLRLSCAASGRTFYTYAMGWYRQAPGKERELVAAISSDGSTYYADSVKGRFTISRDNAKNTVYLQMNSLKPEDTAVYYCAADYSPWYWGYTYYYWGQGTQVTVSS | high polyreactivity

Sequence | polyreactivity (PSR sort gate)
QVQLVESGGGLVQAGGSLRLSCAASGYIFYGYAMGWYRQAHGKERELVAAITVRGGSTYYADSVKGRFTISRDNAKNTVYLQMNSLNPEDTAVYYWAAAPQFTVGVGYWGQGTQVTVSS | low polyreactivity
QVQLVESRGGLVQAGGSLRLSCAASGFTFYKYAMGCYRQAPGKERELVAAITGSGGSTYYADSVKGRFTISRDNAKNTVYLQMNSLKPEDTAVYYCATRYPTYYGYHKFDYWGQGTQVTVSS | high polyreactivity
QVQLVESGGGLVQAGGSLRLSCAASGGIFGYYVMGRYRQAPGKERELVAVITRGGSTNYADSVKGRFTISRDNAKNTVYLQMNSLKPEDTAVYYCAKDVPYRRVRSEYWGQGTQVTVSS | low polyreactivity
QVQLVESGGGLVQAGGSLRLSCAASASTFRPYAMGWFRQAPGKEREFVASITWRGGGTYYADSVKGRFTISRDNAKNTVYLQMNSLKPEDTAVFSCAAATQVRGNSLPYGYWGQGTQVTVSS | high polyreactivity
QVQLVESGGGLVQAGGSLRLSCAASGRIFLGNTMGCYRQAPGKERELVAAISKRGGSTYYVDSVKGRFTISRDNAKNTVYLQMNSLKPEDTAVYYCNAGPLYSGVYSGYYWGQGTQVTVSS | high polyreactivity
QVQLVESGGGLVQAGGSLRLSCAASGRTFGRYVMGWYRQAPGKERELVSAISKGGTSTYYADSVKGRFTISRDNAKNTVYLQMISLKPVVTAVYYCAAGSFARYTYVPRYDYWGQGTQVTVSS | high polyreactivity
QVQLVESGGGLVQAGGSLRLSCAASGRTFVWNVMGWYRQAPGKEREFVAAISGGSTYYADSVKGRFTISRDNAMNTVYLEMNSLKPEDTAVYYCADASKLHPRYEYWGQGTQVTVSS | low polyreactivity
QVQLVESGGGLVQGGGSLRLSCAASGIIFFNNVMGWYRLAPGKERELVAAITFSGSSTYYADSVKGRFTISRDNAKNTVYLQMNSLKTEDTAVYYCAAYRSGHGIIDYDSWGQGTQVTVSS | low polyreactivity
QVQLVESGGGLVQAGGSLRLSCAASGNIFSFYTMGWYRQAPGKERELVAAISWSGTSTYYADSVKGRFTISRDNAKNTVYLQMNSLKPEDTAVYYCAAVRRISRYDYWGQGTQVTVSS | high polyreactivity
QVQLVESGGGLVQAGGSLRLSCAASGSTFYGYGMGWYRQAPGKERELVAAITGSGDTTYYADSVKGRFTISRDNAKNSVYLQMNSLKPEDTAVYYCNARWHAEYDYWGQGTQVTVSS | low polyreactivity
QVQLVESGGGLVQAGGSLRLLCAASGFTFGFNAMGWYRQAPGKERELVAAISRGGSTNYADSVKGLFTISRDNAKNTVYLQMNSLKPEDTAVYYCAADVITYVFRFYYWGQGTQVTVSS | low polyreactivity
QVQHVESGVGLVQAGGSLRLSCAASGSTFVPYAMGWYRQAPGKDRELVAAISSAGSTNYADSVKGRFTISRDNAKNTVYLQMNSLKPEDTAVYYCARDIQDTYEFDYWGQGTQVTVSS | low polyreactivity
QVQLVESGGGLVQAGGSLRLICAASGSIFPFYAMGWYRQEPGKERELVAAITYSGGRTYYADSVKGRFTISRDNAKNTVYLQMNSLKPEDTAVYYCAVVVIFVRYGYWGQGTQVTVSS | low polyreactivity
QVQLVESGGCLVQAGGSLRLSCAASGSIFIYYAMGWYRQAPGKERELVATISVRGGSTYYADSVKGRFTISRDNAKNTVYLQMNSLKPEDTAVYYCNAVTSGTTKSAYDYWGQGTQVTVSS | high polyreactivity
QVQLVESGGGLVQAGGSLRLSCAASGGIFSYNDMGWYRQAPGKERELVAAISSGGGGITYYADSVKGRFTISRDNAKNTVYLQMNSLKPEDTAVYYCNVVPDFRAAYSSQYYYWGQGTQVTVSS | low polyreactivity
QVQLVESGGGLVQAGGSLRLSCSASGLIFPSNTMGWYRQAPGTERELVAAITFSGDSTNYADSVKGRFTISRDNAKNTVYVQMNSLKPEDTAVYYCAASQVSDTTRFGYWGQGTQVTVSS | low polyreactivity
QLQLVESGGGLVQAGGSLRLSCAASGNTYFWYAMGWYRQAPGKERELVAAITSGGSTTYADSVKGRFTISRHNGMNTVYLQMNSLKPEDTAVYYCAQYTRDIFAVTFYEGEDYWGQGSQVTVSS | low polyreactivity
QVQLVESGGGLVQAGGSLRLSCAASGRTFLYYAMGWYRQAPGKERELVAGITSGGSTNYADSVKGRFTISRDNAKNTVYLQMNSLKPEETAVYYCAARYFPRIQYGRKGYDYWGQGTQVTVSS | low polyreactivity
QVQLVESGGGLVQAGGSLRLSCAASGSIFYKYTMGWYRPAPGKERELVAAITKSGGSTYYADSVKGRFTISRDNAKNTVYLQMNSLKPEDTAVYYCAARRYRYYSRGSWGQGTQVTVSS | high polyreactivity
QVQLVESGGGLVQAGGSLRLSCAASGSIFVRNALGWYRQAPGKEREFVAIRFSGATTYYADSVKGRFTISRDNAKNTVYLQMNSLKPEDTAVYYCAAVARTYGRTSYYWGQGTQVTVSS | high polyreactivity
QVQLVESGGGLVQSGGSLRLSCAASGRTFGYNAMGWYRQAPGKERELVAAISRSGDSTYYADSVKGRFTISRDNAKNTVYLQMNSLNPEVTAVFYCATRYVTTGYDYWGQGTQVTVSS | low polyreactivity
